Assay results reported in patent publication EP1287147B1.

Assays:
[1] = molecular target: human CD3 (CD3 epsilon of the T-cell receptor complex) on Jurkat cells (human) (UniProt P07766); test: competition with 125I-UCHT1 tracer on Jurkat cells; competitor at 1 nM
[2] = molecular target: human CD3 (CD3 epsilon of the T-cell receptor complex) on Jurkat cells (human) (UniProt P07766); test: competition with 125I-UCHT1 tracer on Jurkat cells; competitor at 100 nM
[3] = molecular target: human CD3 (CD3 epsilon of the T-cell receptor complex) on Jurkat cells (human) (UniProt P07766); test: cell-based or functional assay

% of 125I-UCHT1 tracer bound (% of tracer bound without competitor) [1]	% of 125I-UCHT1 tracer bound (% of tracer bound without competitor) [2]	Substance	ratio of IC50 of sFv-DT390 to IC50 of UCHT1-CRM9 [3] [fold]
80	0	UCHT1 monoclonal antibody (murine anti-human CD3, IgG1)	
		sFv-DT390 (DT390-sFv(UCHT1'), anti-CD3 single-chain immunotoxin with truncated diphtheria toxin)	16
80	0	scUCHT1 (divalent chimeric anti-human CD3 single chain antibody, UCHT1 VL-linker-VH fused to human IgM Fc CH2-CH4) (Fc fusion)	
